Laboratory results reported in article doi:10.1101/2022.09.13.507756 (bioRxiv, 2022).

Assays:
[1] = target: the molecule itself; experiment: SEC + SEC-MALS
[2] = target: the molecule itself; experiment: SEC

B1: Cyclohexadienyl dehydratase from Pseudomonas aeruginosa (PaCDT) (enzyme, UniProt Q01269 26-268, looked up)
chain: QESRLDRILESGVLRVATTGDYKPFSYRTEEGGYAGFDVDMAQRLAESLGAKLVVVPTSWPNLMRDFADDRFDIAMSGISINLERQRQAYFSIPYLRDGKTPITLCSEEARFQTLEQIDQPGVTAIVNPGGTNEKFARANLKKARILVHPDNVTIFQQIVDGKADLMMTDAIEARLQSRLHPELCAVHPQQPFDFAEKAYLLPRDEAFKRYVDQWLHIAEQSGLLRQRMEHWLEYRWPTAHGK
stoichiometry N [1]: 3

B2: Ws0279 (natural protein, UniProt Q7MAG0 24-258, looked up)
chain: QKSTLNEIIKRGELRVGLEPGYLPFEMKDKKGNVIGFDVDLAREMAKAMGVKLKLVPTSWDGLIPGLVTEKFDIIISGMTISQERNLRVNFVEPYIVVGQSLLVKKGLEKGVKSYKDLDKPELTLVTKFGVSAEYAAKRLFKNAKLKTYDTEAEAVQEVLNGKADMFIFDLPFNVAFMAQKGQGYLVHLDTSLTYEPLGWAIKKGDPDFLNWLNHFLAQIKHDGSYDELYERWFV
stoichiometry N [2]: 3

B3: PaCDTΔC (enzyme, Pseudomonas aeruginosa, UniProt Q01269 26-259, looked up)
chain: QESRLDRILESGVLRVATTGDYKPFSYRTEEGGYAGFDVDMAQRLAESLGAKLVVVPTSWPNLMRDFADDRFDIAMSGISINLERQRQAYFSIPYLRDGKTPITLCSEEARFQTLEQIDQPGVTAIVNPGGTNEKFARANLKKARILVHPDNVTIFQQIVDGKADLMMTDAIEARLQSRLHPELCAVHPQQPFDFAEKAYLLPRDEAFKRYVDQWLHIAEQSGLLRQRMEHWLE
stoichiometry N [2]: 3
